# Experimental data from the nanobody polyreactivity screen of Harvey et al. (2022).
# Assay: yeast display, Sf9 membrane polyspecificity reagent, FACS + sequencing; frameworks hold sequencing errors
# How it was run: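 Sorting gates, low and high (top ~1%), were placed on anti-HA fluorescence to track expression and on streptavidin fluorescence to track reagent binding. A clone's polyreactivity label is taken from the gate it came out of. The reagent was 10% biotinylated, detergent-solubilized Sf9 membrane, applied for 1 hour at 4 °C to galactose-induced yeast display cells.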
row,Sequence,polyreactivity (PSR sort gate)
1,QVQLVESGGGLVQAGGSLRLRCAASGRTFRRNAMGWYRQAPGKERELVAGISWGGGSTYYADSVKGRFTISRDNAKNTVYLQMNSLKPEDTAVYYCAASGYFYRAYGYWGQGTQVTVSS,high polyreactivity
2,QVQLVESGGGLVQAGGSLRLRCAASGRTIASYTMGWYRQAPGKEREWVAAISKSGGSTYYADSVKGRFTNSRDNAKNTVYLQMNSLKPEDTAVYYCAKRRSGNVRKYDYWGQGTQVTVSS,high polyreactivity
3,QVQLVESGGGLVQAGGSLRLRCAASGRTVVYYAMGWSRPAAGKETEFVATITSSGGSTYYADSVKGRFTISRDNAKNSVYLQMNSLKPEDTAVNYCAASPNIGYSKVSKYYYRGQGTQVTVSS,high polyreactivity
4,QVQLVESGGGLVQAGGSLRLRCAASGSIFFHNAMGWYRQAPVKERELVATINRSDGTYYADSVKGRFTISRDNAKNTVYFQMNSLKPEDTAVYYCAVDHSFNDELDYWGQGTQVTVSS,low polyreactivity
5,QVQLVESGGGLVQAGGSLRLRCAASGSIFKGYAMGSYRQAPGKERELVAAIRGSGGSSYYADSVKGRFTISRDNAKNTVYFQLISLTPEDTAFYYCAAVAYTGGPRKLGFNYWGQATQVTVSS,high polyreactivity
6,QVQLVESGGGLVQAGGSLRLRCAASGSIFPLYAMGWYRQAPGKERELVAAITSSGGRTYYADSVKGRFTISRDNAKNTVYLQMNSLKPEDTAVYYCNAGYYVRRDYDYWGQGTQVTVSS,low polyreactivity
7,QVQLVESGGGLVQAGGSLRLRCAASGSIFPPYAMGWYRQAPGKERELVAVISFSSGRTYYADSVKGRFTISRDNAKNTVYLQMNSQKPEDTAVYYCAADYESRNKFDYWGQGTQVTVTS,low polyreactivity
8,QVQLVESGGGLVQAGGSLRLRCAASGSIFPYNAMGWYRQAPGKERELVAAISKRGRSTYYADSVKGRFTISRDNAKNTVYLHMNSLKPEDTAVYYSAARYPPYRSWYSYDYWGQGTQVTVSS,low polyreactivity
9,QVQLVESGGGLVQAGGSLRLRCAASGSIFRVYAMGWYRQAPGKERELVATITWNGGSTYYADSVKGRFTISRDNAKNTVYLQMNSLKPEDTAVFYCAKPSSWRRVLPIDYWGQGTQVTVSS,low polyreactivity
10,QVQLVESGGGLVQAGGSLRLRCAASGSIFRYNPMGWYRQAPGKERELVAPISWSGGHTYYADSVKGRFTISRDNAKNTDYLQLNSLKPEDTAVYYWATVPRKTPGNAELDYWGQGTQVTVSS,high polyreactivity
11,QVQLVESGGGLVQAGGSLRLRCAASGSIFWYYTMGWYRQAPGIERELVATLTRSGSRTYDADSVKGRCTISRDNAKNTVYLQMNSLKPEDTAVYYCAKDYGPWTYDYWGQGTQVTVSS,low polyreactivity
12,QVQLVESGGGLVQAGGSLRLRCAASGSIFYRNPMGWYRQAPGKESELVAAITSRGGRTYYADSVKGRFTISRDNAKNTVYLQMNSLKPEDTAVYYCNKRDVYSTSDYDYWGQGTQVTVSS,high polyreactivity
13,QVQLVESGGGLVQAGGSLRLRCAASGSISWLYSMGCYSQAPGKERELVAAISWGGGDTYYADSVKGRFTISRDNAKNTVYLQMHSLKPEDTEVFYCAADSDYYWLAYDYWGQGTQVTLSS,low polyreactivity
14,QVQLVESGGGLVQAGGSLRLRCAASGSTFANYAMGWYRQAPGKERELVAAISVGDGSTYYADSVKGRFTISRDNAKNTVYLQMNILKPEDTAVYYCSRVRGGYDSWGQGTQVTVSS,high polyreactivity
15,QVQLVESGGGLVQAGGSLRLRCAASGSTFGRYAKVWYRQAPGKEREFVAAISWSGGSTYYADSVKGRFTISRDNAKNTVYLQMNSLKPEDTAVYYCARYSWRGLAEFDSWGQGTQVTVSS,low polyreactivity
16,QVQLVESGGGLVQAGGSLRLRCAASGSTFQTYAMGWYRQAPGKERELVAAITSGGATNYADSVKGRFTISRDNAKNTVFLQMNFLTPEVTAVYYCAVRLIDQTSDHRLQYDYWGQGTQVTVSS,low polyreactivity
17,QVQLVESGGGLVQAGGSLRLRCAASGSTFWGYAMGWYRQAPGKERELVASITWRGGSTYADSVKGRFTISRDNAKNTVYLQMNSLKPEDTAVYYCNALPYRYRRYDYWGQGTQVTVSS,low polyreactivity
18,QVQLVESGGGLVQAGGSLRLRCAASGSTLYGNAMGWYRQAPGKERDLVAVISRGGTTSYADSVKGRFTISRDNAKNTVYLQMKSLKPEDTAVYYCAVDVASLSTWPPAGRLVDYWGQGTQVTVSS,low polyreactivity
19,QVQLVESGGGLVQAGGSLRLRCAASGYTLGPYAMGWYRPAPGKQRELVAAISWGGGRTYYADSVKGRFTISRDNAKNTVYLLMNSLKPEDTAVYYCAAKWSLVRDGPKYDYWGQGTQVTVSS,low polyreactivity
20,QVQLVESGGGLVQAGGSLRLRCADSGSIFHCNAMGWNRQAPGKERELVAGITTSGGTTYYADTVKGRFTISRDNAKNTVYVQMKSLKPEATAVYYCAARIIRWRPRWPSYGKYDYWGQVTQVTVSS,low polyreactivity
21,QVQLVESGGGLVQAGGSLRLRCASSGITFRGYAMGWYRQAPGKERELVASITNTDSTYYADSVKGRFTISRDNAKNTVYLQMNSLKPEDTAVYYCAARRGRKYGYWGQGTQVTVSS,high polyreactivity
22,QVQLVESGGGLVQAGGSLRLRCDASGLIFYDNMGWYRQAPGKERELVAAISSSGGSTSYADSVKGRFTISRDNAKNTVYLQMNSLKPEDTAVYYCAADSYPAYLGFVGFDYWGQGTQVTVSS,low polyreactivity

row,Sequence,polyreactivity (PSR sort gate)
1,QVQLVESGGGLVQAGGSLRLRCDASGRIFISYTMGWSRPPPGKERELVAGIDSSGTSTYYADSVKGRFTISRDNAKNTVYLLMNSLKPEDNADYYCNVDGYWKDTSTEMVYWGQGTQVTVSS,low polyreactivity
2,QVQLVESGGGLVQAGGSLRLRGAASGRTFPGYAMGWCRPAPGNERELVATICSADSTNYADSVMGRFTSSRDNAKNTVKLHMKSLKPEDTAVYFCAQRYGRNGAAAQYNVWYRYDYWGQGTQVTVSS,low polyreactivity
3,QVQLVESGGGLVQAGGSLRLSAASGSTLAGNTMGWYRQAPGKERELVAAINDSGGSTYYADSVKGRFTISRDNAKNTVYLQMNSLKPEDTAVYYCNAEGSAYIEDGYDYWGQGTQVTVSS,low polyreactivity
4,QVQLVESGGGLVQAGGSLRLSCAAAGFIFWSNAMGWYRQAPGKERELVAAIRNTGSTNYADSVKGRFTISRDNAKNTVYLQMNSLKPEDTAVYYCATKPYPYYLYYYWGQGTQVTVSS,high polyreactivity
5,QVQLVESGGGLVQAGGSLRLSCAAAGNIFSPYAMGWYIQAPGKERELVAAISYSGGSTYYADSVKGRFTISRDIAKNTFYLQMNSLKPEDTAVYYCAVVYSYYLAVLGYWDYDYWGQGTQVTVSS,low polyreactivity
6,QVQLVESGGGLVQAGGSLRLSCAAAGRISVFYTMGWYRQAPGKERVLVAVIRTSGGRTNYADSVKGRFTISRDNAKNTVYLQMNSLKPEDTAVYYWDADAVIEWTEWYSAWWYYYWGQGTQVTVSS,low polyreactivity
7,QVQLVESGGGLVQAGGSLRLSCAAAGRLFGPYAMGWYGQAPGKERELVASISYSGGSTYYADSVKGRFTISRDNAKNTVYLQMNSLKAEDTAVYYCAKGGYWRGYNYWGQGTQVTVSS,low polyreactivity
8,QVQLVESGGGLVQAGGSLRLSCAAAGRTFGDYDMGWYRQAPGKERELVAAITSDGTTYYADSVKGRFTISRDNAKNTVYLQMNSLKPEDTAVYYCAADYWYVSWYDYWGQGTQVTVSS,low polyreactivity
9,QVQLVESGGGLVQAGGSLRLSCAAAGSIFRGYAMGWYRQEPEKERELVADISRRGGSTYYADSVKGRFTISRDNAKNTVYLQMNSLKPEDTAVYYCAKDGTGAGTYDYWGQGTQVTVSS,low polyreactivity
10,QVQLVESGGGLVQAGGSLRLSCAAAGSTFSSYAMVWYRQAPGKERELVAAISTSGGRTYYADSVKGRFTISRDNAKNAVFLQMNSLKPEDTAVYYCAKKGICYVRYYYWGQGTLVTVSS,high polyreactivity
11,QVQLVESGGGLVQAGGSLRLSCAACGFIFHFYAMGWYRQAPGKERELVASISAIGGSTYYADSVKGRFTISRDNAKNTVYLQMNSLKPEDTAVYYCATYSYRHRRYSRYDYWGQGTQVTVSS,high polyreactivity
12,QVQLVESGGGLVQAGGSLRLSCAACGFTFAYYAMGWYRQAPGKERELVATITSGGRTYYADSVKGRFTISRDNAKNTVYFQMNSLKPEDTAVYYCAGAGKGRYHFRSTMDYWGQGTQVTVSS,high polyreactivity
13,QVQLVESGGGLVQAGGSLRLSCAACGFTFYYYAMGWYRQAPGKERELVASISASGGITYYADSVKGRFTISRDNAKNTVYLQMNSLKPEDTAVYYCATRQGYRLYYWGQGTQVNVSS,high polyreactivity
14,QVQLVESGGGLVQAGGSLRLSCAACGFTIRRYAKGWYRQAPGKERELVAAITTGGSTYYADSVKGRFTISRDNAKNTVYFQMNSLKPEETAVYDCAALYPYKQYRLGYDSWGQGTQVTVSS,high polyreactivity
15,QVQLVESGGGLVQAGGSLRLSCAACGIIFVYYAMGWYRQAPGKERELVAAISSSGARTYYADSVKGRFTISRDNAKNTVYLQMNSLKPEDTAVYYCAARETRTKPIFYGYNYWGQGTQVTVSS,high polyreactivity
16,QVQLVESGGGLVQAGGSLRLSCAACGLTYNANAMGWYRQAPGKERELVAAIDWIGGSTYYADSVKGRFTISRDNAKNTVYLQMNSLKPEDTAVYYCASRSKRRNYDYWGQGTQVTVSS,high polyreactivity
17,QVQLVESGGGLVQAGGSLRLSCAACGRIFSYNAMGWYRQAPGKERELVAAIRWRGGSTYYADSVKGRFTISRDNAKNTVYLQMNRLKPEDTAVYYCNALRYYHYDYWGQGTQVTVSS,high polyreactivity
18,QVQLVESGGGLVQAGGSLRLSCAACGRPFTLYAMGWYRQAPGKERELVASITSGTRTYYADSVKGRFTISRDNAKNTVYLQMNSLKPEDTAVYYCAKEGYRRTLHRLYDYWGEGTQVTVSS,low polyreactivity
19,QVQLVESGGGLVQAGGSLRLSCAACGSIFRPNAMGWYRQAPGKERELVAAITWIAGGTYYADSVKGRFTISRDNAKNTVYLEMNSLKPEDTAVYYCAARWYFQTAVGRYYHYDYWGQGTQVTVSS,high polyreactivity
20,QVQLVESGGGLVQAGGSLRLSCAACGSTFGYNAMGWYRQAPGKERELVADISWSGGTTYYADSVKGRFTISRDNAKNTVYLQMNSLKPEDTAVYYCNARYPDRPVQGWRVEVDYWGQGTQVTVSS,high polyreactivity
21,QVQLVESGGGLVQAGGSLRLSCAACGYSFPAYAMGWYRQAPGKERELVAAINRRGGTTYYADSVKGRFTISRDNAKNTVYLQMNSLKPEDTAVYYCARYSGLKDMDYWGQGTQVSVSS,high polyreactivity
